In article PMC8878202, “Interdisciplinary Study of the Effects of Dipeptidyl-Peptidase III Cancer Mutations on the KEAP1-NRF2 Signaling Pathway” (International Journal of Molecular Sciences, 2022):
Residue numbers refer to the chain shown, from its start. Names and notes keep the numbering of the source.

B1: Dipeptidyl peptidase III, wild type (enzyme, human, UniProt Q9NY33 1-737, looked up)
chain: MADTQYILPNDIGVSSLDCREAFRLLSPTERLYAYHLSRAAWYGGLAVLLQTSPEAPYIYALLSRLFRAQDPDQLRQHALAEGLTEEEYQAFLVYAAGVYSNMGNYKSFGDTKFVPNLPKEKLERVILGSEAAQQHPEEVRGLWQTCGELMFSLEPRLRHLGLGKEGITTYFSGNCTMEDAKLAQDFLDSQNLSAYNTRLFKEVDGEGKPYYEVRLASVLGSEPSLDSEVTSKLKSYEFRGSPFQVTRGDYAPILQKVVEQLEKAKAYAANSHQGQMLAQYIESFTQGSIEAHKRGSRFWIQDKGPIVESYIGFIESYRDPFGSRGEFEGFVAVVNKAMSAKFERLVASAEQLLKELPWPPTFEKDKFLTPDFTSLDVLTFAGSGIPAGINIPNYDDLRQTEGFKNVSLGNVLAVAYATQREKLTFLEEDDKDLYILWKGPSFDVQVGLHELLGHGSGKLFVQDEKGAFNFDQETVINPETGEQIQSWYRSGETWDSKFSTIASSYEECRAESVGLYLCLHPQVLEIFGFEGADAEDVIYVNWLNMVRAGLLALEFYTPEAFNWRQAHMQARFVILRVLLEAGEGLVTITPTTGSDGRPDARVRLDRSKIRSVGKPALERFLRRLQVLKSTGDVAGGRALYEGYATVTDAPPECFLTLRDTVLLRKESRKLIVQPNTRLEGSDVQLLEYEASAAGLIRSFSERFPEDGPELEEILTQLATADARFWKGPSEAPSGQA
notes: Dipeptidyl peptidase III (DPP III, EC 3.4.14.4), human, wild type, cloned into pLATE31; also called DPP III; WT DPP III; source: E. coli BL21-(DE3)-RIL+, purified (Ni-NTA agarose)
B2: DPP III R638L variant (enzyme, human, UniProt Q9NY33 1-737, looked up)
chain: B1 chain with R638L
notes: source: E. coli BL21-(DE3)-RIL+, purified (Ni-NTA agarose)
B3: DPP III E480Q variant (enzyme, human, UniProt Q9NY33 1-737, looked up)
chain: B1 chain with E480Q
notes: as for B2
B4: DPP III G482C variant (enzyme, human, UniProt Q9NY33 1-737, looked up)
chain: B1 chain with G482C
notes: as for B2
B5: DPP III E451K variant (enzyme, human, UniProt Q9NY33 1-737, looked up)
chain: B1 chain with E451K
notes: as for B2
B6: DPP III Q484H variant (enzyme, human, UniProt Q9NY33 1-737, looked up)
chain: B1 chain with Q484H
notes: as for B2
B7: DPP III P479S variant (enzyme, human, UniProt Q9NY33 1-737, looked up)
chain: B1 chain with P479S
notes: as for B2
B8: DPP III R638W variant (enzyme, human, UniProt Q9NY33 1-737, looked up)
chain: B1 chain with R638W
notes: as for B2
B9: DPP III T481M variant (enzyme, human, UniProt Q9NY33 1-737, looked up)
chain: B1 chain with T481M
notes: as for B2
B10: DPP III R703C variant (enzyme, human, UniProt Q9NY33 1-737, looked up)
chain: B1 chain with R703C
notes: as for B2
B11: DPP III R510W variant (enzyme, human, UniProt Q9NY33 1-737, looked up)
chain: B1 chain with R510W
notes: as for B2

molecular target: T1, Kelch domain of KEAP1 protein (UniProt Q14145 321-609, fluorescently labeled with RED-MALEIMIDE (Cysteine reactive) fluorescent dye); test: MST; Kelch domain labeled with RED-MALEIMIDE, 50 nM; DPP III or variant added; binding-induced fluorescence change on Monolith NT.115; 25 °C; 50 mM Tris, 100 mM NaCl, pH 8.2, 0.05% Tween; triplicate; conditions: both partners purified
T1 construct: Kelch domain of KEAP1 (Kelch-like ECH associated protein 1); plasmid pET15b with Kelch insert, gift of Mark Hannink; also called Kelch-like ECH associated protein 1 (Kelch domain); source: E. coli BL21-(DE3)-RIL+, purified (Ni-NTA agarose)
T1 sequence (Q14145 321-609): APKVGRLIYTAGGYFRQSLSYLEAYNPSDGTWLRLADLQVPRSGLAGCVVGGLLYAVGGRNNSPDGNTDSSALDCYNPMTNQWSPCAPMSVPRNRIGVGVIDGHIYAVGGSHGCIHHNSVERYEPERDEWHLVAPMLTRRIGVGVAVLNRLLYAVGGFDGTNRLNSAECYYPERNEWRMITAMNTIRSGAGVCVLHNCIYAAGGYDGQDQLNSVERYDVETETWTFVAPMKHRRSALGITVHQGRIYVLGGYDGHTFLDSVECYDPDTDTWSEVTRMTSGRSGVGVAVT

| Kd(WT)/Kd(mut) | Binder |
| --- | --- |
| 1 | B1 |
| 2 | B2 |
| 0.1 | B3 |
| 0.8 | B4 |
| 2.1 | B5 |
| 2.1 | B6 |
| 18.4 | B7 |
| 2 | B8 |
| 0.1 | B9 |
| 1.7 | B10 |
| 0.3 | B11 |
